Results as given in patent publication US20110123543A1.

Assays:
[1] = molecular target: recombinant mouse TNFα (mouse) (UniProt P06804); assay: cell-based or functional assay
[2] = molecular target: recombinant human TNFα (rhTNF, Dainippon, Osaka, Japan) (human) (UniProt P01375); assay: Scatchard analysis; direct binding of 125I-labelled antibody to rhTNFα immobilized in a 96-well plate
Sequence of UniProt P01375 (P01375 77-233 limits assumed): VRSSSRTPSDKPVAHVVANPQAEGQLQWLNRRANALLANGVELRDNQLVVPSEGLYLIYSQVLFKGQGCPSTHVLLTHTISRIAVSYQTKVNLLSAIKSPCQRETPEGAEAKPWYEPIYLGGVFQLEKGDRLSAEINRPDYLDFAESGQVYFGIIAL

Sequence of UniProt P06804 (P06804 80-235 limits assumed): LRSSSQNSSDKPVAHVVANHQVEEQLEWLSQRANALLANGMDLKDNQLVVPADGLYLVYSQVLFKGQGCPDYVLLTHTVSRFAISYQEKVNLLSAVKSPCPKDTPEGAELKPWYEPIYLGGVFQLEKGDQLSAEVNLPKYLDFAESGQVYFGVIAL

Row | Ka [2] [M⁻¹] | Substance | neutralizing titre: concentration required to cause 50% inhibition of killing of WEHI 164 cells by trimeric recombinant murine TNFα (60 pg/ml mouse TNFα) [1] [ng/mL]
1 |  | TN3-19.12, neutralizing hamster IgG1 anti-TNFα/β monoclonal antibody | 62
2 |  | TNF receptor/IgG fusion protein p55-sf2 (from UniProt P19438 30-211; P01857 1-330) (Fc fusion) | 0.6
3 | 1.8e+09 | chimeric A2 (cA2), chimeric monoclonal anti-TNF antibody | 
